Substrate in data set [1]: N[C@@H](CO)C(=O)O
The data set is described as follows: purified protein.

Substrate in data set [2]: Nc1ncnc2c1ncn2[C@@H]1O[C@H](COP(=O)(O)OP(=O)(O)OP(=O)(O)O)[C@@H](O)[C@H]1O
The data set is described as follows: purified protein.

The source of these data is article PMC9723649.

As usually defined, the Km is the concentration of substrate that gives half-maximal velocity.

B1: SARS2 (human mitochondrial seryl-tRNA synthetase, mature form) (Homo sapiens; INS217NLSP/K218R) (protein)
chain: TTEKRNRNLLYEYAREGYSALPQLDIERFCACPEEAAHALELRKGELRSADLPAIISTWQELRQLQEQIRSLEEEKAAVTEAVRALLANQDSGEVQQDPKYQGLRARGREIRKELVHLYPREAQLEEQFYLQALKLPNQTHPDVPVGDESQARVLHMVGDKPVFSFQPRGHLEIGEKLDIIRQNLSPRRLSHVSGHRSYYLRGAGALLQHGLVNFTFNKLLRRGFTPMTVPDLLRGAVFEGCGMTPNANPSQIYNIDPARFKDLNLAGTAEVGLAGYFMDHTVAFRDLPVRMVCSSTCYRAETNTGQEPRGLYRVHHFTKVEMFGVTGPGLEQSSQLLEEFLSLQMEILTELGLHFRVLDMPTQELGLPAYRKFDIEAWMPGRGRFGEVTSASNCTDFQSRRLHIMFQTEAGELQFAHTVNATACAVPRLLIALLESNQQKDGSVLVPPALQSYLGTDRITAPTHVPLQYIGPNQPRKPGLPGQPAVS
Regarding B1, the Km in the data set “purified protein [1]” stood at 1660 ± 30 µM; in “purified protein [2]”, 64.69 ± 4.48 µM.
